According to PMC3025062:

Target: cis-3-chloroacrylic acid dehalogenase (native)
Experiment: crystal structure

Substance: cis-3-chloroacrylic acid dehalogenase (native) (enzyme)
- stoichiometry N: 3
